The values below come from patent US20080293632.

The target of this data set is SHOX full length (Homo sapiens) (UniProt O15266). Nature of the data set: cell_activity. The following applies: luciferase.
Chain of SHOX full length (Homo sapiens) (O15266 whole entry): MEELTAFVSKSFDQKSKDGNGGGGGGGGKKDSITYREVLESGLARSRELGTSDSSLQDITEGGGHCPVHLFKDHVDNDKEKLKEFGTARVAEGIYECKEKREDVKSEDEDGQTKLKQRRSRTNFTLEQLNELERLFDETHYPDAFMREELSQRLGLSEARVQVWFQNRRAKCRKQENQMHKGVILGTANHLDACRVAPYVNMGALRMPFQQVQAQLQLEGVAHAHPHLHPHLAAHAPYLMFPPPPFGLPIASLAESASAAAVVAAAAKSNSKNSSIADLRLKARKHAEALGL

“BNP 5' flanking region reporter (BNP for / BNP rev)” gave an activity (fold induction) (forward orientation, reverse 8-fold) of 10.
In turn, “p3XG reporter (SHOX binding site before SV40 core promoter)” displayed an activity (fold induction) of 2.
